Results from the supplement of paper PMC9732359.
± gives the uncertainty stated by the source.

Assay: protein stability index of a GFP-peptide fusion (yeast GPS) (PSI 1-4); higher = more stable; sorted into four equal gates, so the index is relative within each strain
Procedure, shortened: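 Plasmids isolated from each sorting gate were PCR-amplified and Illumina-sequenced, and barcodes assigned the reads to strains. The gates, four of equal size, were set by GFP/Cherry fluorescence ratio on mid-log cultures in leucine-free medium. These cultures were yeast carrying a pooled library of tiled 17-residue yeast protein peptides fused downstream of GFP on a plasmid that also expresses Cherry. The protein stability index is the sum of every gate's read frequency times its gate number.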

| Sequence | protein stability index (doa10∆) | protein stability index (pdr5∆) | protein stability index (san1∆) | protein stability index (ubr1∆) |
| --- | --- | --- | --- | --- |
| KEENDEGLSAQIAFDLV [RPN2] | 3.4 ± 0.14 | 3.56 ± 0.098 | 3.44 ± 0.076 | 3.33 ± 0.055 |
| ELLSSLEGKGSLEEIIA [RPP2B] | 2.27 ± 0.08 | 2.24 ± 0.061 | 2.63 ± 0.052 | 1.92 ± 0.064 |
| RRILPKPSRTSRQVQKR [RPS7A] | – | 3.44 ± 0.15 | 2.74 ± 0.1 | 3.35 ± 0.14 |
| KLFNRIVERETNWIIYP [CSN12] | 2.81 ± 0.19 | 3.48 ± 0.24 | 2.85 ± 0.21 | – |
| TYEMRIHKRYIDLEAPV [RPS20] | 2.17 ± 0.16 | 2.71 ± 0.15 | – | 2.51 ± 0.28 |
| DLKDILEKVVPLINVVV [BRR2] | 2.22 ± 0.12 | 1.91 ± 0.077 | 2.37 ± 0.15 | 2.51 ± 0.065 |
| ESNVNDSDMLTKSHNTV [NUT1] | 3.08 ± 0.1 | 3.25 ± 0.095 | 3.28 ± 0.086 | 3.43 ± 0.1 |
| ANPKKLALMTAHSLSPK [CDC53] | 2.43 ± 0.052 | 2.78 ± 0.054 | 2.72 ± 0.057 | 2.32 ± 0.036 |
| ALLIAGHDADDGYQLFH [PUP2] | 2.29 ± 0.16 | 2.86 ± 0.17 | 3.22 ± 0.12 | 2.66 ± 0.13 |
| SSFKKNLLKFITSNHKS [RPN3] | 1.46 ± 0.053 | 1.5 ± 0.049 | 1.3 ± 0.064 | 1.83 ± 0.092 |
| IIMHKDVEIGRMPIMLR [RET1] | 3.29 ± 0.26 | 3.18 ± 0.16 | 2.98 ± 0.079 | 2.72 ± 0.16 |
| ISEVMEDRNQRIKEMYW [FAS1] | 3.07 ± 0.16 | 3.3 ± 0.17 | 2.99 ± 0.12 | 2.97 ± 0.12 |
| NSIDSTSRIELELKNIG [ECM29] | 3.24 ± 0.087 | 3.15 ± 0.062 | 2.8 ± 0.05 | 2.72 ± 0.044 |
| TENATENDQQDNEEWMN [LIN1] | 3.23 ± 0.072 | 3.03 ± 0.067 | 3.06 ± 0.062 | 2.77 ± 0.05 |
| LLISDTESNELIQKLQN [IRR1] | 2.79 ± 0.076 | 2.85 ± 0.084 | 2.38 ± 0.073 | 2.9 ± 0.084 |
| KLRDHEPDLESQISKAE [SMC4] | 2.07 ± 0.13 | 1.31 ± 0.21 | 3.16 ± 0.16 | – |
| DDYSNLKREERQGLIHQ [SMC3] | 2.21 ± 0.2 | 2.6 ± 0.1 | 1.96 ± 0.21 | 2.7 ± 0.11 |
| LIKQVPRLLGPQLSKAG [RPL1A] | 1.98 ± 0.068 | 1.73 ± 0.06 | 1.78 ± 0.081 | 1.6 ± 0.059 |
| EWVKLHRLLQRALFRQL [RMP1] | 1.47 ± 0.25 | 1.58 ± 0.21 | 2.86 ± 0.14 | 2.16 ± 0.14 |
| QMTQIMDIMEDFLRYIN [SNF2] | 1.21 ± 0.032 | 1.33 ± 0.034 | 1.4 ± 0.08 | 1.43 ± 0.027 |
| ILDINVSSSKNKKSEEN [SWP82] | 3.36 ± 0.15 | 3.21 ± 0.083 | 3.27 ± 0.08 | 3.27 ± 0.079 |
| IPATIFDKVIYHLHPTF [TAF14] | 2.61 ± 0.066 | 2.8 ± 0.068 | 2.55 ± 0.062 | 2.78 ± 0.057 |
| GGTNEDDFTDAIQFVKE [YCS4] | 2.35 ± 0.14 | 2.6 ± 0.15 | 3.39 ± 0.07 | 3.69 ± 0.19 |
| QFNAITGLNGSGKSNIL [SMC2] | 3.31 ± 0.17 | 2.99 ± 0.13 | 3.18 ± 0.099 | 3.34 ± 0.067 |
| HAQLLLSDRITGNFIIP [PRP8] | 2.09 ± 0.061 | 2.52 ± 0.071 | 2.37 ± 0.071 | 2.71 ± 0.043 |
| AKTFGASVRIFLYPSNI [RPL33A] | 2.38 ± 0.057 | 2.65 ± 0.056 | 2.5 ± 0.066 | 2.59 ± 0.054 |
| AHAIDQMTWRQWLNNAL [POP8] | 2.67 ± 0.065 | 2.6 ± 0.046 | 2.41 ± 0.055 | 2.58 ± 0.04 |
